The term Kd denotes the equilibrium constant for the complex coming apart. The low end stands for higher affinity, the high end for lower affinity. As usually defined, the koff is the rate constant with which the complex falls apart. Broadly, the kon is the rate constant with which the complex forms. The low end stands for slower complex formation, the high end for faster complex formation.

Consider ten molecules from patent US20240279333A1 (SYSTIMMUNE, published 2024).

Assay [1] has as its target T1, CD3 e/d antigen (immobilized on the sensor) (UniProt P07766 23-126; P04234 22-105).
T1 construct: 'e/d' read as epsilon/delta; construct not described
The experiment in a line: Octet RED96, antigen immobilized. Background: Biolayer interferometry detects binding as a change in optical thickness at a sensor tip.

The target in assay [2] is 4-1BB protein antigen (immobilized on the sensor) (UniProt Q07011 24-186, limits assumed). The assay can be described thus: Octet RED96, antigen immobilized.
The target of assay [3] is PD-L1 protein antigen (immobilized on the sensor) (UniProt Q9NZQ7 19-238, limits assumed). The assay can be described thus: Octet RED96, antigen immobilized.
In assay [4] the target is T2, full length human ROR1 stably expressed on CHO cells (human, UniProt Q01973 30-937).
T2 construct: whole, on cells; also called ROR1-CHO cells; human ROR1 transfected CHO cells
The experiment in a line: FACS on CHO cells stably expressing full length human ROR1, PE goat anti-human IgG Fc secondary; y axis without label.

The target of assay [5] is T3, human PD-L1 on transfected CHO cells (human, UniProt Q9NZQ7 19-290).
T3 construct: whole, on cells; also called PD-L1 expressing CHO cells; human PD-L1 transfected CHO cells
The assay can be described thus: FACS on human PD-L1 transfected CHO cells, PE goat anti-human IgG Fc secondary; y axis without label.

For assay [6], the target named is T4, human 4-1BB on transfected CHO cells (human, UniProt Q07011 24-255).
T4 construct: whole, on cells; also called 41BB expressing CHO cells; human 41BB transfected CHO cells
The experiment in a line: FACS on human 4-1BB transfected CHO cells, PE goat anti-human IgG Fc secondary; y axis without label.

B1: SI-39E23 (PL230 x 806 x 420H5 x 284A10) (antibody)
heavy: not shown
light: DILMTQSPSSMSVSLGDTVSITCHSSQDINSNIGWLQQRPGKSFKGLIYHGTNLDDEVPSRFSGSGSGADYSLTISSLESEDFADYYCVQYAQFPWTFGGGTKLEIKRTVAAPSVFIFPPSDEQLKSGTASVVCLLNNFYPREAKVQWKVDNALQSGNSQESVTEQDSKDSTYSLSSTLTLSKADYEKHKVYACEVTHQGLSSPVTKSFNRGEC
notes: Tetra-specific antibody, symmetric dimer
Regarding B1, in assay [1], the Kd came out at 0.207 nM, the Response was 2.65, the koff was determined as 2.54e-05 s⁻¹ and the kon is 123000 M⁻¹ s⁻¹. In assay [2], this molecule returned a Kd of 0.696 nM, a Response of 2.02, a koff of 0.000141 s⁻¹ and an on-rate (kon) of 203000 M⁻¹ s⁻¹. In assay [3], this molecule gave a Kd of 0.0402 nM, a Response of 1.9, a koff of 1.94e-05 s⁻¹ and a kon of 483000 M⁻¹ s⁻¹.

B2: SI-39E4 (PL230 x 806 x 284A10 x 420H5) (antibody)
heavy: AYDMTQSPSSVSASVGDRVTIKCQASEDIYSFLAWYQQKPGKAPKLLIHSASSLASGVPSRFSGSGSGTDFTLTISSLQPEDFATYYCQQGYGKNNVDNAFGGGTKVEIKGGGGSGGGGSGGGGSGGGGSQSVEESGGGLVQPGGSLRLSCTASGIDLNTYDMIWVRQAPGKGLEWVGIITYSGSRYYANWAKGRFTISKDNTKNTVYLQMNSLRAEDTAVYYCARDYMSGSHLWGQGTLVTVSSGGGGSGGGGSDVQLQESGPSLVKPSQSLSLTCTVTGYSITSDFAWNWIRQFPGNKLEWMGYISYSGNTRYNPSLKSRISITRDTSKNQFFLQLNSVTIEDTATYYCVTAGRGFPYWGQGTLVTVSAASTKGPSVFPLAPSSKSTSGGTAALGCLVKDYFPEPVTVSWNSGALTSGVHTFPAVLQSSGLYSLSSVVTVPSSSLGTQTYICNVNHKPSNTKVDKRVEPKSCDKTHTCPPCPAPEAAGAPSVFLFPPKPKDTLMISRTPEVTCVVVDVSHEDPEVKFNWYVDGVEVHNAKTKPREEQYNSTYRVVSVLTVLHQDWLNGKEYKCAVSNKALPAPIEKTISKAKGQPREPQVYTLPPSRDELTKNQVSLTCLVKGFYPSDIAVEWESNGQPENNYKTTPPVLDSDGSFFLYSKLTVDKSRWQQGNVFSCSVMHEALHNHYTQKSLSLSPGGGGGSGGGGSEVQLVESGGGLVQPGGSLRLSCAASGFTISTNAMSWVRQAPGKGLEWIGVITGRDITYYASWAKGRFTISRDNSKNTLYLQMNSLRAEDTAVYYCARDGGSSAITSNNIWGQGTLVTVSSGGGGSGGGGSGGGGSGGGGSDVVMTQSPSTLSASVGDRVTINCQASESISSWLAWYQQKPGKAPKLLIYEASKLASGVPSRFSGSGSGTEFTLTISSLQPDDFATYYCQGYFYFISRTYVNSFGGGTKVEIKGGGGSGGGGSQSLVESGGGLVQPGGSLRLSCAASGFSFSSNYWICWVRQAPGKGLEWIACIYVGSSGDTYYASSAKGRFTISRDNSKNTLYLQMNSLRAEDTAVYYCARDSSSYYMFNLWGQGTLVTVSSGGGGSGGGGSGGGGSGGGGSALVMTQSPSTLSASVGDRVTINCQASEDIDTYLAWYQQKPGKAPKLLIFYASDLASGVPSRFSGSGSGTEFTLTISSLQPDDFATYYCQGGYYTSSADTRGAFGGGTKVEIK
light: DILMTQSPSSMSVSLGDTVSITCHSSQDINSNIGWLQQRPGKSFKGLIYHGTNLDDEVPSRFSGSGSGADYSLTISSLESEDFADYYCVQYAQFPWTFGGGTKLEIKRTVAAPSVFIFPPSDEQLKSGTASVVCLLNNFYPREAKVQWKVDNALQSGNSQESVTEQDSKDSTYSLSSTLTLSKADYEKHKVYACEVTHQGLSSPVTKSFNRGEC
notes: Tetra-specific antibody, symmetric dimer; also called SI-39E04; 39 E04
Turning to B2, in assay [1], the dissociation constant Kd was less than 0.001 nM, the Response was found to be 1.97, the dissociation rate constant (koff) was less than 1e-07 s⁻¹ and the on-rate constant (kon) turned out to be 86100 M⁻¹ s⁻¹. In assay [2], this molecule gave a Kd of 0.354 nM, a Response of 2.42, a koff of 5.91e-05 s⁻¹ and a kon of 167000 M⁻¹ s⁻¹. Also, in assay [3], the Kd came out at 0.0723 nM, the Response was 2.15, the koff was 2.41e-05 s⁻¹ and the kon turned out to be 333000 M⁻¹ s⁻¹.

B3: SI-39E18 (284A10 x 806 x PL221 x 420H5) (antibody)
heavy: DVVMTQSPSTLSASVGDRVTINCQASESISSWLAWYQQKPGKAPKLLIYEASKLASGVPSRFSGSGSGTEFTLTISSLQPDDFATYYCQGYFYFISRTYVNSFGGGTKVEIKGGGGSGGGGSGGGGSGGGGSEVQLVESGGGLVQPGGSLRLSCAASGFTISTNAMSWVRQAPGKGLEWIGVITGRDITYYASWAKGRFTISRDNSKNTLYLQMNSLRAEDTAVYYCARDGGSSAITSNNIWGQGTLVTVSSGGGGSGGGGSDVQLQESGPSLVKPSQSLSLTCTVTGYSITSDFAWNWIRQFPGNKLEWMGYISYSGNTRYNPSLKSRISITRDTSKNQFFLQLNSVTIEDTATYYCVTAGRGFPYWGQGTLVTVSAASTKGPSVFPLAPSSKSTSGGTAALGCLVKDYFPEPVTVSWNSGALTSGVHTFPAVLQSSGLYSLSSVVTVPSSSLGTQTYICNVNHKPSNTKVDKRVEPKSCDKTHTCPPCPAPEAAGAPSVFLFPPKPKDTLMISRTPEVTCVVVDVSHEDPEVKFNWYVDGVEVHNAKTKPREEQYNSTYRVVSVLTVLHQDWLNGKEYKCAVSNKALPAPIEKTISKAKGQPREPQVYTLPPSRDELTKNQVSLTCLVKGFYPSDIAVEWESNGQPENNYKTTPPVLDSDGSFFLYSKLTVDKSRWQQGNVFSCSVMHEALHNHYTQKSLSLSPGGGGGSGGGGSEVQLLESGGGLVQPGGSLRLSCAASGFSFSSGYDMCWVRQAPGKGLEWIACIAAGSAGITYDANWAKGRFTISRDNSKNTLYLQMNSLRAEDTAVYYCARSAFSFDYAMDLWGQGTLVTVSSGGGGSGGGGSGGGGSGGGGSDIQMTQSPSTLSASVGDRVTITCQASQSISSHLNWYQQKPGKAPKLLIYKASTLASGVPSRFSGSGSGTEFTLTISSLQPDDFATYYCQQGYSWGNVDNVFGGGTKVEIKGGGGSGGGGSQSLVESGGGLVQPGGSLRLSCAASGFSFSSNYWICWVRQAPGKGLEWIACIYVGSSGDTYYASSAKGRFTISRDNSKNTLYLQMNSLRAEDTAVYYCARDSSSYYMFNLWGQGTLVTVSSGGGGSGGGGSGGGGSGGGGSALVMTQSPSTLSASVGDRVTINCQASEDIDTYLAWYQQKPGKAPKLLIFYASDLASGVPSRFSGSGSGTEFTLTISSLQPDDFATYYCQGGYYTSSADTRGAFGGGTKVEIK
light: DILMTQSPSSMSVSLGDTVSITCHSSQDINSNIGWLQQRPGKSFKGLIYHGTNLDDEVPSRFSGSGSGADYSLTISSLESEDFADYYCVQYAQFPWTFGGGTKLEIKRTVAAPSVFIFPPSDEQLKSGTASVVCLLNNFYPREAKVQWKVDNALQSGNSQESVTEQDSKDSTYSLSSTLTLSKADYEKHKVYACEVTHQGLSSPVTKSFNRGEC
notes: as for B1
With B3, in assay [1], the Kd worked out at 0.632 nM, the Response was found to be 1.76, the koff was 0.00011 s⁻¹ and the kon came to 174000 M⁻¹ s⁻¹. In assay [2], this molecule returned a Kd of 0.393 nM, a Response of 2.02, a koff of 9.24e-05 s⁻¹ and a kon of 235000 M⁻¹ s⁻¹. In assay [3], this molecule came in with a Kd of 0.168 nM, a Response of 1.83, a koff of 6.37e-05 s⁻¹ and a kon of 379000 M⁻¹ s⁻¹.

B4: SI-39E29 (806 x 284A10 x PL221 x 420H5) (antibody)
heavy: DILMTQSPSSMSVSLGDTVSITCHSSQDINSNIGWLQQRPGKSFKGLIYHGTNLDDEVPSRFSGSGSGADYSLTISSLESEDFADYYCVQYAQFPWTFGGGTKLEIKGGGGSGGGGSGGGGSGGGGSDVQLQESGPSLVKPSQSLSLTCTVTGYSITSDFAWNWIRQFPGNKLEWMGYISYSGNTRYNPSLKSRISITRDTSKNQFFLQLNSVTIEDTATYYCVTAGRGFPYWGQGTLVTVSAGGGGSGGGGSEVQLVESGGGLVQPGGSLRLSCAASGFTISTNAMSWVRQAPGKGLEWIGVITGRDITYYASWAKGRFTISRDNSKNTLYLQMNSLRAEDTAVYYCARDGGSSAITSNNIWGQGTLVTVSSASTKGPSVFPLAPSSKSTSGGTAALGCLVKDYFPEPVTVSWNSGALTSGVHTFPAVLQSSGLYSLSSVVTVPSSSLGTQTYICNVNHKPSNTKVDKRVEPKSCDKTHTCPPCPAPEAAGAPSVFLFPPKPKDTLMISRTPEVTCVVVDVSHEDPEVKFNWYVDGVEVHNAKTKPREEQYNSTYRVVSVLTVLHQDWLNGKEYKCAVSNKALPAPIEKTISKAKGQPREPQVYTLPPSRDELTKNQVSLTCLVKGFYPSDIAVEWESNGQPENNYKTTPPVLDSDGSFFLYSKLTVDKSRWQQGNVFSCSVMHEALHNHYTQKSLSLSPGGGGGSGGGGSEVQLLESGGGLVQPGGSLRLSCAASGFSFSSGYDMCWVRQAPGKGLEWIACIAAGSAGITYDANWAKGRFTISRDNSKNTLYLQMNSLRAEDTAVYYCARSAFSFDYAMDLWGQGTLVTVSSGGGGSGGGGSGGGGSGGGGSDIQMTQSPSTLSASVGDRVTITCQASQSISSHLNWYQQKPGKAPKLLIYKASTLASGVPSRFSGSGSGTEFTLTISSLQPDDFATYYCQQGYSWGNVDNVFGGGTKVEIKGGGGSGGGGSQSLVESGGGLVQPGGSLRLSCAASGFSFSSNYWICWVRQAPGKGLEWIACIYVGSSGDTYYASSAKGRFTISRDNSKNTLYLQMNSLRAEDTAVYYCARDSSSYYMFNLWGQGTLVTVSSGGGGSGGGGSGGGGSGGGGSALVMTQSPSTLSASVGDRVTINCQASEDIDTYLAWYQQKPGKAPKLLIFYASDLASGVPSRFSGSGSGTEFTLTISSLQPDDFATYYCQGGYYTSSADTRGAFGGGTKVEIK
light: DVVMTQSPSTLSASVGDRVTINCQASESISSWLAWYQQKPGKAPKLLIYEASKLASGVPSRFSGSGSGTEFTLTISSLQPDDFATYYCQGYFYFISRTYVNSFGGGTKVEIKRTVAAPSVFIFPPSDEQLKSGTASVVCLLNNFYPREAKVQWKVDNALQSGNSQESVTEQDSKDSTYSLSSTLTLSKADYEKHKVYACEVTHQGLSSPVTKSFNRGEC
notes: as for B1
In assay [1], B4 displayed a Kd of 0.475 nM, a Response of 1.85, a koff of 7.86e-05 s⁻¹ and a kon of 166000 M⁻¹ s⁻¹. Also, in assay [3], the Kd was 0.283 nM, the Response worked out at 1.72, the koff is 0.000106 s⁻¹ and the kon was determined as 376000 M⁻¹ s⁻¹.

B5: SI-35E18 (460C3-L1H1-scFv x PL230C6-Fab x 323H7-H4L1-scFv x 284A10-H1L1-scFv) (antibody, human IgG1, kappa)
heavy: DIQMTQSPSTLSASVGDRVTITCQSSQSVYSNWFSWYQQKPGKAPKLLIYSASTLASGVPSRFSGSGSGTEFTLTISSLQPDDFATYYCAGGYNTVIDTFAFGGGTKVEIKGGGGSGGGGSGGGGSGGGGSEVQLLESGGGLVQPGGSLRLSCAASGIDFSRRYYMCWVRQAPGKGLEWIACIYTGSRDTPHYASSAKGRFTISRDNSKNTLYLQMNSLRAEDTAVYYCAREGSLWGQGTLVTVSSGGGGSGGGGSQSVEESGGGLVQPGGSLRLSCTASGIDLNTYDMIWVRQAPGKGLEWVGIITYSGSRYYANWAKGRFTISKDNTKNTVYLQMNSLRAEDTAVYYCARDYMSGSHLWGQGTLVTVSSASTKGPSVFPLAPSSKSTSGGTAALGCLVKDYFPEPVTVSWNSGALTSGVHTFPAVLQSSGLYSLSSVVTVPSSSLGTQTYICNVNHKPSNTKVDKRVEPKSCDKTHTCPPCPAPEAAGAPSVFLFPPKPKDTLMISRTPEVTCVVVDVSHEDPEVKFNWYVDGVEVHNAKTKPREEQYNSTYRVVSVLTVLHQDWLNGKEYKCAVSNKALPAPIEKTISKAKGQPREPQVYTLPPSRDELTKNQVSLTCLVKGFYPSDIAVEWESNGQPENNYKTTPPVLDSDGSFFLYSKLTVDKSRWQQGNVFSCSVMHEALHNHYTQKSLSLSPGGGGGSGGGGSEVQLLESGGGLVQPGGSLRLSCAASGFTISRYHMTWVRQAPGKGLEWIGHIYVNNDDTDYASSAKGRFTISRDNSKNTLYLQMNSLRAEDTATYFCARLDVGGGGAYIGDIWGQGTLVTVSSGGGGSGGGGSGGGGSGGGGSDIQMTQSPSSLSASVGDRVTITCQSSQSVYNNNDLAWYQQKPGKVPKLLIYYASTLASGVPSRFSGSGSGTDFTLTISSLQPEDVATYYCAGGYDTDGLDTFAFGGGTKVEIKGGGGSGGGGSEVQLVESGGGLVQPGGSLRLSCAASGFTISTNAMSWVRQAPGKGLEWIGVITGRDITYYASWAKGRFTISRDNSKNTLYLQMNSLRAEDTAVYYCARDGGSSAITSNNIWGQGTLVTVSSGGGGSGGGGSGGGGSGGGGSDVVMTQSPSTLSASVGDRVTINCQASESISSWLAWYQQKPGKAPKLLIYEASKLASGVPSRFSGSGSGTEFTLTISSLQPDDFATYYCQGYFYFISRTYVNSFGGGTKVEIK
light: AYDMTQSPSSVSASVGDRVTIKCQASEDIYSFLAWYQQKPGKAPKLLIHSASSLASGVPSRFSGSGSGTDFTLTISSLQPEDFATYYCQQGYGKNNVDNAFGGGTKVEIKRTVAAPSVFIFPPSDEQLKSGTASVVCLLNNFYPREAKVQWKVDNALQSGNSQESVTEQDSKDSTYSLSSTLTLSKADYEKHKVYACEVTHQGLSSPVTKSFNRGEC
notes: as for B1
Turning to B5, the binding result in assay [4], in assay [5] and in assay [6] was “binds” in each case.

B6: SI-35E25 (420H5 x PL230C6 x 330F11 x 284A10) (antibody, human IgG1, kappa)
heavy: not shown
light: AYDMTQSPSSVSASVGDRVTIKCQASEDIYSFLAWYQQKPGKAPKLLIHSASSLASGVPSRFSGSGSGTDFTLTISSLQPEDFATYYCQQGYGKNNVDNAFGGGTKVEIKRTVAAPSVFIFPPSDEQLKSGTASVVCLLNNFYPREAKVQWKVDNALQSGNSQESVTEQDSKDSTYSLSSTLTLSKADYEKHKVYACEVTHQGLSSPVTKSFNRGEC
notes: Tetra-specific antibody, symmetric dimer; also called '25' in 'SI-3524, 25, and 26'
Turning to B6, the binding result in assay [4] was “no binding (tested: 10 nM)”.

B7: SI-35E24 (460C3 x PL230C6 x 330F11 x 284A10) (antibody, human IgG1, kappa)
heavy: not shown
light: AYDMTQSPSSVSASVGDRVTIKCQASEDIYSFLAWYQQKPGKAPKLLIHSASSLASGVPSRFSGSGSGTDFTLTISSLQPEDFATYYCQQGYGKNNVDNAFGGGTKVEIKRTVAAPSVFIFPPSDEQLKSGTASVVCLLNNFYPREAKVQWKVDNALQSGNSQESVTEQDSKDSTYSLSSTLTLSKADYEKHKVYACEVTHQGLSSPVTKSFNRGEC
notes: Tetra-specific antibody, symmetric dimer; also called SI-3524
As to B7, the binding result in assay [4] is given as “no binding (tested: 10 nM)”.

B8: SI-35E26 (466F6 x PL230C6 x 330F11 x 284A10) (antibody, human IgG1, kappa)
heavy: not shown
light: AYDMTQSPSSVSASVGDRVTIKCQASEDIYSFLAWYQQKPGKAPKLLIHSASSLASGVPSRFSGSGSGTDFTLTISSLQPEDFATYYCQQGYGKNNVDNAFGGGTKVEIKRTVAAPSVFIFPPSDEQLKSGTASVVCLLNNFYPREAKVQWKVDNALQSGNSQESVTEQDSKDSTYSLSSTLTLSKADYEKHKVYACEVTHQGLSSPVTKSFNRGEC
notes: Tetra-specific antibody, symmetric dimer; also called '26' in 'SI-3524, 25, and 26'
As for B8, the binding result in assay [4] is “no binding (tested: 10 nM)”.

B9: SI-39E13 (420H5 x PL230 x 284A10 x 806) (antibody, human IgG1, kappa)
heavy: not shown
light: AYDMTQSPSSVSASVGDRVTIKCQASEDIYSFLAWYQQKPGKAPKLLIHSASSLASGVPSRFSGSGSGTDFTLTISSLQPEDFATYYCQQGYGKNNVDNAFGGGTKVEIKRTVAAPSVFIFPPSDEQLKSGTASVVCLLNNFYPREAKVQWKVDNALQSGNSQESVTEQDSKDSTYSLSSTLTLSKADYEKHKVYACEVTHQGLSSPVTKSFNRGEC
notes: as for B1
Turning to B9, in assay [1], the Kd was less than 0.001 nM, the Response is 1.8, the koff was less than 1e-07 s⁻¹ and the kon worked out at 104000 M⁻¹ s⁻¹. In assay [2], this molecule had a Kd of 0.117 nM, a Response of 2.47, a koff of 2.65e-05 s⁻¹ and an on-rate (kon) of 227000 M⁻¹ s⁻¹. Also, in assay [3], binding was put at a Kd of 0.0801 nM, the Response was determined as 1.92, the koff was found to be 3.32e-05 s⁻¹ and the kon amounted to 415000 M⁻¹ s⁻¹.

B10: SI-39E10 (420H5 x PL230 x 806 x 284A10) (antibody, human IgG1, kappa)
heavy: not shown
light: AYDMTQSPSSVSASVGDRVTIKCQASEDIYSFLAWYQQKPGKAPKLLIHSASSLASGVPSRFSGSGSGTDFTLTISSLQPEDFATYYCQQGYGKNNVDNAFGGGTKVEIKRTVAAPSVFIFPPSDEQLKSGTASVVCLLNNFYPREAKVQWKVDNALQSGNSQESVTEQDSKDSTYSLSSTLTLSKADYEKHKVYACEVTHQGLSSPVTKSFNRGEC
notes: as for B1
In assay [1], B10 registered a Kd of less than 0.001 nM, a Response of 2.24, a koff of less than 1e-07 s⁻¹ and a kon of 110000 M⁻¹ s⁻¹. In assay [2], this molecule had a Kd of 0.0356 nM, a Response of 2.63, a koff of 7.43e-06 s⁻¹ and a kon of 209000 M⁻¹ s⁻¹. In assay [3], this molecule yielded a Kd of 0.0685 nM, a Response of 1.94, a koff of 2.61e-05 s⁻¹ and a kon of 381000 M⁻¹ s⁻¹.
